Experimental data: US6436691B1, “Chemical compounds” (Zeneca Limited, priority 1995, dated 2002)
Residue numbers refer to the chain shown, from its start. Names may count otherwise.

B1: [G251N,D253K]: HCPB mutant with G251N and D253K, (His)6-c-myc tag (protein, UniProt P15086 111-417, looked up, variant G251N D253K)
Carboxypeptidase B: ATGHSYEKYNKWETIEAWTQQVATENPALISRSVIGTTFEGRAIYLLKVGKAGQNKPAIFMDCGFHAREWISPAFCQWFVREAVRTYGREIQVTELLDKLDFYVLPVLNIDGYIYTWTKSRFWRKTRSTHTGSSCIGTDPNRNFDAGWCEIGASRNPCDETYCGPAAESEKETKALADFIRNKLSSIKAYLTIHSYSQMMIYPYSYAYKLGENNAELNALAKATVKELASLHGTKYTYGPGATTIYPAAGNSKDWAYDQGIRYSFTFELRDTGRYGFLLPESQIRATCEETFLAIKYVASYVLEHLY
modifications: (His)6-c-myc tag
B2: [G251T,D253R]HCPB: HCPB mutant with G251T and D253R, (His)6-c-myc tag (protein, UniProt P15086 111-417, looked up, variant G251T D253R)
Carboxypeptidase B: B1 Carboxypeptidase B with N251T, K253R
modifications: (His)6-c-myc tag
B3: [G251V, D253K]: HCPB mutant with G251V and D253K (protein, UniProt P15086 111-417, looked up, variant G251V D253K)
Carboxypeptidase B: B1 Carboxypeptidase B with N251V
B4: [G251K, D253R]: HCPB mutant with G251K and D253R (protein, UniProt P15086 111-417, looked up, variant G251K D253R)
Carboxypeptidase B: B1 Carboxypeptidase B with N251K, K253R
B5: [A248H, D253K]: HCPB mutant with A248H and D253K (protein, UniProt P15086 111-417, looked up, variant A248H D253K)
Carboxypeptidase B: B1 Carboxypeptidase B with A248H, N251G

Columns and labels:
Type in all cases: biochemical
[1] = Km and kcat of HCPB mutants with Hipp-Glu (Example 7); conditions: Hipp-Glu 0.25-8.0 mM; pH 7.5; 5 h at 37° C.
Protocol: (§1) Hipp-Glu and Hipp-Asp were diluted in range 0.25-8.0 mM and 0.25-5.0 mM respectively in 0.025 M Tris-HCL buffer, pH 7.5. Where necessary substrate samples were adjusted to pH 7.5 with 1M NaOH.
(§2) Samples were incubated for 5 h at 37° C. Reactions were terminated by the addition of 500 μl methanol/distilled water (80/20) containing 0.2% TFA. The amount of hippuric acid produced was quantified by HPLC as described in Example 6.
(§3) Km and Vmax values were calculated using the ENZFITTER software programme (Biosoft, Perkin Elmer).

[2] = Conversion of Hipp-Glu by purified HCPB mutants, 30 minutes, HPLC (Example 17); conditions: 0.5 mM substrate, 30 minutes at 37° C.
Protocol: (§4) Purified mutants of human CPB (D253K; [G251K,D253R]; [G251N,D253R]; [I201S,D253K]; [G251N,D253K]; [Q54R,D145A,D253K]; [G251T,D253K]; [G251S,D253K]; [A248N,G251N,D253K]; [A248S,G251N,D253K] and [S205N,G251N,D253K]—described in Examples 3, 12, 13, 16, 28, 30, 31, 32 and 33) were assayed for their ability to convert hippuryl-L-glutamic acid (Hipp-Glu—Reference Example 1), hippuryl-L-aspartic acid (Hipp-Asp—Reference Example 2) and hippuryl-L-arginine (Sigma Chemical Company—cat no. H6625) to hippuric acid using a HPLC based assay similar to that described in Example 6.
(§5) Samples were incubated for 30 minutes at 37° C. The reactions were terminated by the addition of 500 μl of 40% methanol, 60% distilled water, 0.2% trifluoro acetic acid and the amount of hippuric acid generated was quantitated by HPLC as described in Example 6 but using a mobile phase of 20% methanol, 80% 50 mM phosphate buffer, pH 6.5. Hippuric acid was detected at 230 nm. The results are shown in Table 5 and are expressed as the percentage conversion of substrate into product in 30 minutes at 37° C.

[3] = Conversion of Hipp-Asp by purified HCPB mutants, 30 minutes, HPLC (Example 17); conditions: 0.5 mM substrate, 30 minutes at 37° C.
Protocol: as §4, §5

[4] = Conversion of Hipp-Arg by purified HCPB mutants, 30 minutes, HPLC (Example 17); conditions: 0.5 mM substrate, 30 minutes at 37° C.
Protocol: as §4, §5

[5] = Conversion of prodrug of Example 24 to drug of Example 25 by HCPB mutants, HPLC (Example 20); conditions: enzyme 15 μg/ml; 0.5 mM prodrug of Example 24; 5 minutes at 37° C.
Protocol: The reaction was stopped by adding MeCN (500 μl) plus 0.2% Trifluoroacetic acid. The amount of drug produced was then quantified by HPLC.
HPLC separation was carried out as described in Example 6 except that a mobile phase of 70% MeCN, 30% distilled water and 0.1% trifluoroacetic acid was used to achieve separation of prodrug (retention time 3.8 minutes) and drug (retention time 4.9 minutes) and the compounds were detected at 260 nm. The amount of drug produced was quantified from calibration curves generated with known amounts of drug.
The amount of [Q54R,D145A,D253K]HCPB and [G251T,D253K]HCPB mutants was reduced to 0.75 μg in the reaction mixture.

[6] = Km and kcat of HCPB mutants with Hipp-Asp (Example 7); conditions: Hipp-Asp 0.25-5.0 mM; pH 7.5; 5 h at 37° C.
Protocol: as §1, §2, §3

[7] = Conversion of Hipp-Glu by periplasmic shockate of HCPB mutants, 24 h (Example 18); conditions: shockate concentration in reaction mixture 50 %; 24 h at 37° C.
Protocol: (§6) The activity of [G251T,D253K]HCPB was measured using the assay conditions described in Example 17 but using either 50 μl of a neat or 1 in 10 or 1 in 100 dilution of [G251T,D253K]HCPB crude E.coli periplasmic shockate (shockate) sample in place of purified enzyme. Samples were incubated for 24 h at 37° C. […] For other HCPB mutants, the reaction volume was 250 μl and contained 125 μl of neat shockate or 1 in 50 dilution of shockate. The shockate samples were prepared as described in Example 16. The amount of Hippuric acid produced in 24 h was quantified by HPLC as described in Example 17 and the results are shown in Table 6 and are expressed as the percentage conversion of substrate into product in 24 h at 37° C.

[8] = Conversion of Hipp-Asp by periplasmic shockate of HCPB mutants, 24 h (Example 18); conditions: shockate concentration in reaction mixture 50 %; 24 h at 37° C.
Protocol: as §6

[9] = Activity against Hipp-Asp in crude E. coli periplasmic shockate relative to D253K or D253R HCPB (Example 16)
Text: A number of other mutant HCPBs have been constructed in a similar manner to the methods described in Reference Examples 7 and 8, and Examples 12, 13, 14 and 15. In each case oligos were constructed to introduce specific changes in the gene sequence by methods similar to those described above. In some cases additional mutations were identified upon complete sequencing of the mutated gene, and these were presumably introduced during the PCR reactions. Mutants with enzyme activity against substrate analogues (see Example 18 below) have been identified, and examples of these are given in Table 4 below. […] This material is subsequently referred to as periplasmic shockate or shockate and is prepared by the following procedure.
1. A single colony was used to inoculate 75 ml of L-broth nutrient media containing 10 μg/ml tetracycline and arabinose to a final concentration of 0.01% (w/v). Incubation was performed at 20° C. with shaking (250 rpm) for about 60 hours.
2. The cells were then harvested by centrifugation at 4° C.
3. The cell pellet was re-suspended in 300 micro-liters of 20% sucrose (w/v) containing 1 mM EDTA in 200 mM Tris-HCl at pH7.5, and incubated at room-temperature for 15 minutes.
4. Periplasmic shockate was generated by the addition of 450 micro-liters of distilled water, and a further incubation at room-temperature for 15 minutes.
5. Cellular remains were removed by centrifugation, and the supernatant assayed for enzyme activity as soon as possible after preparation and kept at 4° C. prior to assay.
as §6

Row | Molecule | Km [1] | kcat, Hipp-Glu [1] | Hipp-Glu (% conversion) ([2]; enzyme 2.5 μg/ml) | Hipp-Glu (% conversion) ([2]; enzyme 25 μg/ml) | Hipp-Asp (% conversion) ([3]; enzyme 2.5 μg/ml) | Hipp-Asp (% conversion) ([3]; enzyme 25 μg/ml) | Hipp-Arg (% conversion) ([4]; enzyme 2.5 μg/ml) | Hipp-Arg (% conversion) ([4]; enzyme 25 μg/ml) | Prodrug Hydrolysis (%) [5] | Km [6] | kcat, Hipp-Asp [6] | Hipp-Glu (% conversion) ([2]; enzyme 1 μg/ml) | Hipp-Asp (% conversion) ([3]; enzyme 1 μg/ml) | Hipp-Arg (% conversion) ([4]; enzyme 1 μg/ml) | Hipp-Glu (% conversion) [7] | Hipp-Asp (% conversion) [8] | Hipp-Asp, activity relative to D253K HCPB or D253R HCPB [9]
1 | B1 | 2300 µM | 24 s⁻¹ | 62.4% | 100% | 1.9% | 8.3% | 0.4% | 1.8% | 75.9% |  |  |  |  |  |  |  | 
2 | B2 | 1600 µM | 7.8 s⁻¹ |  | 96% |  | 29% |  | 0% |  | 1700 µM | 0.7 s⁻¹ | 16.2% | 1.2% | 0% | 65.4% | 14.6% | 
3 | B3 |  |  |  |  |  |  |  |  |  |  |  |  |  |  |  |  | NAD (No activity detected)
4 | B4 |  |  | 3.2% | 5.5% | 0.2% | 0.2% | 0% | 0% | 16.2% |  |  |  |  |  |  |  | NAD (No activity detected)
5 | B5 |  |  |  |  |  |  |  |  |  |  |  |  |  |  |  |  | NAD (No activity detected)
